Measurements as given in PMC10509167, “Identification and characterization of endo-α-, exo-α-, and exo-β-D-arabinofuranosidases degrading lipoarabinomannan and arabinogalactan of mycobacteria” (Nature Communications, 2023).

Target: the molecule itself
Experiment: crystal structure; ExoMA2 in complex with Tris (1.75 Å) and with β-D-Araf (1.35 Å); dimer in the asymmetric unit; sitting-drop vapor diffusion, 20 °C

B1: ExoMA2 (MIAR_33170), GH116 exo-β-D-arabinofuranosidase from Microbacterium arabinogalactanolyticum, recombinant (enzyme, UniProt A0AAJ6N6D6 1-867, looked up)
chain: MSKIKSRRARRIPHTAESVAFPLGGIGTGNVSLGARGELRDWEFENLPDKGRLNPRSFFAIHAAPQGGPSATRVLEARSSGRHDRDAGYGFDELAGLPRLDSAGLHGEYPVVDIDFTDATLPVTVSLHAFTPLVPLDADASGIPAAVLRYRVVNPGDAPVTVTVVGSMSHTAGRGAPGPDAPWGMRGTQSVRWRESDGIRGLDFDIDLDHDDPGYGTMSLTTTDSSTTVKPQWVTSYWPDGARLFWNDLADDGLLAPEARLTLEDKPRGLFAERDADPDAPALTEEQMLAKLPRVRTGSLGIVHTLAPGEERDFEFVLAWSFPNRRRGWHGHIIFDDALEDGAPDLRDELGPIVRNHYAVRWPDAWAAAAQLHRDLPALEGATDAFVEELYGGSLDPVLADAVGANIAALRSTTCFVLESPTPELGDGPVFAAWEGSFDHGGSCEGTCTHVWSYAQTAAWLFPGLERSARRAEYLLETDESGAQKFRGNRIFGAPRWFIGPAVDGQLGTFLRLHREWRFCGDDEFLRELWPAAARTLDYAAREWDHDGDGLLDGEMHNTYDIEFHGVEPLSNIIHLAALRAGVRMAGHLGDTARAQEWALRADHVAAAIEGVLWNGEYYRQVIDDVDAHRYQYGDGVLSDQLLGQFHAFLGGLGYLLPEAHVRSALDAIVQHNHRGDLRDHESTQRVYALNDEGGLLLASWPEGGRPALPFVYADEVWTGIEHQVAVSLLFAGRYDDALRIERTLRARYDGAHRSPWNEIECGNHYARSLASWGLLIGASGAQWDAGARTLSFDPVLPGDARFLFTTATGWGGVEIGDDVITLRLHGGALDLDELRLRGEVAGRGIHLDAGETRTLTLTLEHHHHHH
notes: ExoMA2, product of gene MIAR_33170 of Microbacterium arabinogalactanolyticum JCM 9171; primers are in Supplementary Data 3; source: E. coli BL21 (DE3), purified (IMAC, anion exchange chromatography, SEC)
For B1, the “stoichiometry N” value was 2.
